Here are results for 19 sequences from a protein production outcome set (Wang et al. 2014).

The data set in a line: label from the status in PepcDB records.
On to “MMVKDGLRYWPLGMAFLLGVGLQPVRAAEMFLPPTGLAQEELIALTEVDSLAQARLPQSEGSAIDLLPLPPQPTAAVDPPREAPASLPTTIEVKGDSPAPPVEPSPPTTDNSPGVPTTPQLAAEQAVQEARLALLREGDRYWQLGDLTTARTYYQKAKADLNVPPPHVIPPAVLEISQLPPAAQVYWREVQSGSQLYTAQAVPLQLLVEQFPEFIPAQVRFGEFLAQQGSLKEACAHLEKAASLYPDQPDIQRGLITLYDRQQQWLEAALAAQRFALLNPDHPATPEFEQLAAERMQRFRRRLQGQLREGMVVGALTGLVGVALTGNPLLSLDSIQMMTLMMQGESALGRSAARNISRQVKLLEDAAVQTYVNEVGQRLAKVAGRNEFAYEFFVIKDNDLNAFALPGGKIFVNSGAILKASTEAELAGLLAHEIAHTVLSHGFRLMTQGTATANLTRLLPAGGYVTGIVVTSYSREMEREADILGTQILARAGYAADGLLNLMHTLKKEYRNQEPPLPWFSTHPPTNERIRYIRGLMRDRGYTPFAFEGLERHQRIQAHLRTLVDPPNAPKSKRETAKTPQ”, for which the protein production result is “failed”.
For the sequence “MPAQTNLKPVLTAAQVNVLMETVYPQLNEQFKYYEAIDVFPGGCTVRLNAGERHLRPGGTVSGPSLFTLADIGGYVCVLSHAGPDALSVTVNLDINFVRKAEAGPIDGHCRILKLGKSLMVFAIDIVAGPEGQTIAHATGTYSIPPKRIGDVVK”, the protein production entry is recorded as “failed”.
Consider “MSLAHERSSGIYLVAASAVLWSTAGLFVRMADMDMWSMVAWRSAFTFLALGAFFLLRNRFARQRSSMSFGFPGIAGCLVSAIAAITYIASLRWTTVANVMTIYATLPFIVAGIAFVCLRDRVTYRFVIAGCLAFVGVLISVGAAVSHQDMLGIFAAFIMTTGCATQIVIAKRFPDMDTTLMTALAALICICVALPLMQFEIPAPTQIIACALYGVLTTAFGYIFLLQGSRRINAGEAGLISMLDVILGPVWVWLFYNEVISPIVLTGGGIVIMSVAWYLAGDRRAATAP”, for which the protein production entry is reported as “failed”.
As to “MFYKEENFKKTEIGEIPEDWEIVELKDVCKKIKAGGTPKTSVEEYYKNGTIPFVKIEDITNSNKYLTNTKIKITEEGLNNSNAWIVPKNSVLFAMYGSIGETAINKIEVATNQAILGIIPKDNILESEFLYYILAKNKNYYSKLGMQTTQKNLNAQIVKSFKIPLPPLEEQKQIAKILTKIDEGIEIIEKSINKLERIKKGLMHKLLTKGIGHSRFKKSEIGEIPEDWEVFEIKDIFEVKTGTTPSTKKSEYWENGEINWITPLDLSRLNEKIYIGSSERKVTKIALEKCNLNLIPKGSIIISTRAPVGYVAVLTVESTFNQGCKGLFQKNNDSVNTEFYAYYLKFKKNLLENLSGGSTFKELSKSMLENFKIPLPPLEEQKQIAKILSSVDKSIELKKQKKEKLQRMKKKIMELLLTGKVRVKT”, the protein production entry is listed as “not failed”.
The entry for “MTENVVCTGAVNAVKEVWEKRIKKLNEDLKREKEFQHKLVRIWEERVSLTKLREKVTREDGRVILKIEKEEWKTLPSSLLKLNQLQEWQLHRTGLLKIPEFIGRFQNLIVLDLSRNTISEIPPGIGLLTRLQELILSYNKIKTVPKELSNCASLEKLELAVNRDICDLPQELSNLLKLTHLDLSMNDFTTIPLAVLNMPALEWLDMGSNKLEQLPDTIERMQNLHTLWLQRNEITCLPQTISNMKNLGTLVLSNNKLQDIPVCMEEMANLRFVNFRDNPLKLKVSLPPSEGTDEEEERELFGLQFMHTYIQESRRRADHQVNGSTTLPISINTDG” is “not failed”.
For the sequence “MSKVVGLSSKKSRWLLQSLRDQQRHSLGTGFESANILLSPKYHLKDKDLRKIHKAARVGDAARVQQLLLGKCGVNDKDKKKRWQGPRDGGCGGGGACVEESPHTTALHIACAYGHPKVVMALIEGRCEINATDSEECTSLVKAVQCQEEECATILLENGADPNIVDAQGNSALHYAVYYKNTSLAAKLLDHEVNIEATNKVEILHQRGVNQSTIVAKCVENPGLQSTGTIFCPHLTPLPEQGLTSSLKLTVVLNLAGGGGGEVSRGGRETETDTGGFTPLLLAVSENKLQIAKFLLMKNANIHAVDNQKRTALMHAVSHDSTHLVRFVLQQGVDLFLNDAFGLTAIDYAADFKYNTKVKQHQGLEKKSKSVSENLPLIRIGVDGLLQVNGQAVEEGRKQEWSEWGASESLQAAALDGGDLTSPLPRRRNKQAGKPGTQESPSVDSKEQDGGSDLNIKEENKKGYEEWSRDFVNELTSEKFGSVACDLLPVKDSWSLNGMDPNKGRPAKRKSKEKHKVEASLMMAEHGIDL”, the protein production result is “failed”.
“MPFAIGQRWLSESENALGLGVITALDQRTVTIYFPAADETRIYAMAQAPLSRIVFSKGETLSHQAGWQGEILDVQNMNGLLFYLVKNPQDEDVIVQERDISPIISFSQAKDRLFSAQI”: the protein production result is listed as “failed”.
The same measure for “MISILLFALTSFLIGLSGAMAPGPLLTVTVSDSIRRGFRAGPLLVAGHVLGEALLVTLILMGLGYILRSGPAPAILGTAGGAVLIWMGILGFRDSEDTENIPEGGSILRGAIISFANPYFFLWWGAVGAALMYRGLELAGVLGLLAFLAGHWSSDLTWYSLVSFLSSRKSFRMNGRPYKIVMMILSLFLILFGVYFLIESLKAISGYS”: “failed”; for “MGGIYRLSLKSTEATAERLSCDTRCNYEDRDLAYSPDGRWLAIARRFSNISEDIFIRDLASAHEKRLTQGLEDIRGLSWTPDSQALVFATEDSGSSNGFTLDINTAQIRSLDVEGMSYPSSVSAEGELVYHQYHRQFQMAYFSLGDKVPGSLFPLLYSGVSHRNPDYSPEAKRIVFVSSETGYNEIWTSDINGQKLEQLTQLKSRVAYPRWSPDGSRIAFIAPDDRNEGNRIFILDLTNKNITALASSYHNHGRPSWNWQGTAVLASTADGITEFYLDNRAPRVISSLSMAVGFAKSATELVFSRDGENGLWQINLTQPEHVEQLISTDAFRAGNNWVLTASGVYFKSSNGHEQLLNYWEASSQQVTSLLRVPRSSLSGFGSMTYIPEANRLVMTLDGFPQRDIILLKHKLLKLEHHHHHH”: “failed”.
As to “MSVIKIEKALKLDKVIFVDVRTEGEYEEDHILNAINMPLFKNNEHNEVGTIYKMQGKHEAIQKGFDYVSYKLKDIYLQAAELALNYDNIVIYCARGGMRSGSIVNLLSSLGVNVYQLEGGYKAYRNFVLEYLRHVMDTK”, the protein production result is on record as “not failed”.
For “MEDAAAPGRTEGVLERQGAPPAAGQGGALVELTPTPGGLALVSPYHTHRAGDPLDLVALAEQVQKADEFIRANATNKLTVIAEQIQHLQEQARKVLEDAHRDANLHHVACNIVKKPGNIYYLYKRESGQQYFSIISPKEWGTSCPHDFLGAYKLQHDLSWTPYEDIEKQDAKISMMDMLLSQSVALPPCTEPNFQGLTH”, the protein production entry is on record as “failed”.
In the case of “MSSKDKKLSKPTSGRTGGIRTLSDLNRRSEPDSDSDSDGPQEYFTGGEKSGMLVQDPTKEPKHDDVDEIFNQARQLGAVEGPLEHPSSSRSFTGTGRLLSGESVPTALQQPEPVIHNIIFWSNGFTVDDGPLRKLDDPENASFLDSIRKSECPKELEPVDKRAPVHVNLMRRDEKCPEKEKLKVSFQGVGRTLGGASSSTASSQSNLTDVAAVQSPLQSLVVDETLPSTSIQLRLADGTRMVAKFNNHHTVNDIRGFIEFSRPGNPNNYTLQVMGFPPKPLTDPSQTIEQAGLASSVVIQKF”, the protein production entry is on record as “not failed”.
The entry for “EELQALVDNIPAAIYHLDVSGQATIRFRPPAFLKTLVSEHAGTTRLNTLSMIHHDDRHMLSNAYSKLREAKHSLTLVYRIVTPEGKLHWIEDHMRSSFSDDGLFSGIDGILCEVT” is “not failed”; for “MAGPTLLKESGPREVFCGLTSIVWLHRRMPDAFFLVVGSRTCAHLIQSAAGVMIFAEPRFGTAILSERDLAGLADAHEELDRVARELLQRRPEIRTLFLVGSCPSEVIKLDLARAAERLNDELQGRVRVVNYSGSGIETTFTQGEDGALAALVPLLPSSAERQLLLVGTLADAVEDRLIHLFGRLGIDRVRSLPPRQSTALPPVGPGTTVLLTQPFLTDTARLLRNRGATVLTAPFPLGAEGSRRWMEAAAQAFEVAPSHVATVLDPLMERARIALEPHREVLAGKRIFLLPESQLELPLARFLQRECGMELVEVGTPYLNREQMAEELALLPEGTPVMEGQHVELQLDRVRDSAPDLVVCGMGLANPLEAEGIATKWSIELVFSPIHGIDQAGDLAELFSRPLRRRQLIHPGLHPTQPDQPVHA” it is “failed”; for “MTSHTPKFHRLAIAELRRETQDAVSMSFTIPDEIAADYTFAPGQYLTLRTTLDGEELRRSYSICSGPDDRELRIAVKKVNGGAFSGWALEQLKSGDQIEVMTPSGRFGVAHAPGESRVHVGFAAGSGITPLISIIRGILAREPNSRFFLFYGNRTTSNILFRQALQDLKDRFMARLAVFHVLSQEEQDLPILHGRLDRDRVTLLLRAMLPAQAIDHVFICGPTAMSEEIAATCAELGVPADRVHVERFVAGSGGKPRPTPVIAPQAPPAAIAALIIDGKRKEVPVAAGEAILDAALRAGIDLPYACKGGMCSTCRAKVVEGETRMDVNYSLEPWELDAGFVLTCQAHPVSDRVVIDYDAV” it is “failed”.
Take “MKNLIFIATTFITTISLTNIAQAANQEHIRQLLATKQCQNCDLSGAGLVMADLTGANLSGANLAGANLSRANLSGADLRGANLSGAGLFGVNLSEAKLGGANLAGADLRSTFLSNAEFTGAYLQGTNFQGALGIPLQIATPDEFYALGVAEAQKGNQQQAINYFNQAIASKPEYAGAYLARGIARYQLFDRQGAAQDAQTAEKLFTSQDNATGIQTAQAFIKELQTPYTEKLSAGKPSFFDFLGSLGSVLLQFLPF”: the protein production result is given as “failed”.
The entry for “MVSSVLPNPTSAECWAALLHDPMTLDMDAVLSDFVRSTGAEPGLARDLLEGKNWDLTAALSDYEQLRQVHTANLPHVFNEGRGPKQPEREPQPGHKVERPCLQRQDDIAQEKRLSRGISHASSAIVSLARSHVASECNNEQFPLEMPIYTFQLPDLSVYSEDFRSFIERDLIEQATMVALEQAGRLNWWSTVCTSCKRLLPLATTGDGNCLLHAASLGMWGFHDRDLVLRKALYTMMRTGAEREALKRRWRWQQTQQNKEEEWEREWTELLKLASSEPRTHFSKNGGTGGGVDNSEDPVYESLEEFHVFVLAHILRRPIVVVADTMLRDSGGEAFAPIPFGGIYLPLEVPPNRCHCSPLVLAYDQAHFSALVSMEQRDQQREQAVIPLTDSEHKLLPLHFAVDPGKDWEWGKDDNDNARLAHLILSLEAKLNLLHSYMNVTWIRIPSETRAPLAQPESPTASAGEDVQSLADSLDSDRDSVCSNSNSNNGKNGKDKEKEKQRKEKDKTRADSVANKLGSFSKTLGIKLKKNMGGLGGLVHGKMGRANSANGKNGDSAERGKEKKAKSRKGSKEESGASASTSPSEKTTPSPTDKAAGASPAEKGGGPRGDAWKYSTDVKLSLNILRAAMQGERKFIFAGLLLTSHRHQFHEEMIGYYLTSAQERFSAEQEQRRRDAATAAAAAAAAAAATAKRPPRRPETEGVPVPERASPGPPTQLVLKLKERPSPGPAAGRAARAAAGGTASPGGGARRASASGPVPGRSPPAPARQSVIHVQASGARDEACAPAVGALRPCATYPQQNRSLSSQSYSPARAAALRTVNTVESLARAVPGALPGAAGTAGAAEHKSQTYTNGFGALRDGLEFADADAPTARSNGECGRGGPGPVQRRCQRENCAFYGRAETEHYCSYCYREELRRRREARGARP” is “failed”; for “MVVVCASHIQPAIICRFTWLRFLMEIILIRHGKPTSANNPVLNAVDFTKWVRRYNFSDVSTNSRPDSILDEYKSHYIVSSDLERAIHSASIYTGQSPELTSKLYREMEIPRYKFPLRFKAMTWVYINRAFWMLGLKGSFESYRQAKIRAELASDHLVELAREQDKVILFGHGYLNLHIRRSLIKKGWKLNSKSNGFWGISSLEGLEHHHHHH” it is “failed”; for “MPKPHETAVYTHGHHESVLRSHTWRTAENSAAYLLGSLRPHMRILDIGCGPGTITADLAERVPEGHVTGVDRSPEIVERARATAAARGLENTGFAVADVHALDYPDDTFCVVHAHQVLQHVGDPVRALREMRRVARPGGFIAVRDSDYGAMTWYPASSGMDDWLDLYHRVARANGGEPDAGRRLKAWALEAGFTDITATSATWTFTTPEEREWWSGLWADRTLASAYAERATEGGHATPERLRAVSAAWRDWGKHPESWFSVLHGEILCRKEA” it is “failed”.
